# According to patent publication US10172917B2, “Targeted oesophageal administration of ZN-α2-glycoproteins (ZAG), methods and formulations thereof” (ASTON UNIVERSITY, priority 2012, dated 2019):
# B1: zinc-α2-glycoprotein (protein, listed as Homo sapiens)
# chain: QENQDGRYSLTYIYTGLSKHVEDVPAFQALGSLNDLQFFRYNSKDRKSQPMGLWRQVEGMEDWKEDSQLQKAREDMETLKDIVEYYNDSNGSHVLQGRFGCEIENNRSSGAFWKYYYDGKDYIEFNKEIPAWVPFDPAAQITKQKWEAEPVYVQRAKAYLEEECPATLRKYLKYSKNILDRQDPPSVVVTSHQAPGEKKKLKCLAYDFYPGKIDVHWTRAGQVQEPELRGDVLHNGNGTYQSWVVVAVPPQDTAPYSCHVQHSSLAQPLVVPWEAS
# notes: Recombinant human ZAG, a 41 kDa protein, produced by HEK293F cells transfected with pcDNA3.1 containing human ZAG
# What was measured:
# [1] = target: β3-AR (Homo sapiens, UniProt P13945); details: high affinity binding site on the β3-AR; previous studies; cited from earlier work
# [2] = system: ob/ob mice; assay: Oral glucose tolerance test in ob/ob mice after 3 days of oral ZAG; assay type: in vivo, mouse
# Protocol: Animals were grouped (n=5) to receive either ZAG/PBS (50 μg day^−1), or PBS in their drinking water, the experiment was repeated three times after a power analysis was performed. […] The ZAG was replaced every 48 h. One group of mice receiving ZAG were also administered propanolol (40 mgkg^−1, p.o.) daily. The dose of ZAG was chosen to be the same as that previously administered i.v. (1), so that a direct comparison could be made, between the two routes. Body weight, food and water intake, urinary glucose excretion, and body temperature, determined by the use of a rectal thermometer (RS Components, Northants, UK), were measured daily. A glucose tolerance test was performed on day 3. Animals were fasted for 12 h, followed by oral administration of glucose (1 gkg^−1 in a volume of 100 μl by gavage). Blood samples were removed from the tail vein at 15, 30, 60 and 120 min and used for the measurement of glucose. Urinary glucose was measured by collecting 0.5 ml urine and testing glucose concentration using a Boots glucose monitor. After 8 days of treatment the animals were terminated by cervical dislocation, tissues were removed and rapidly frozen in liquid nitrogen, and maintained at −80° C. […] Animal studies were conducted under Home Office Licence according to the UKCCCR Guidelines for the care and use of laboratory animals.
# [3] = system: ob/ob mice; assay: Oral ZAG in drinking water to ob/ob mice: body weight, rectal temperature, urinary glucose excretion; assay type: in vivo, mouse
# Protocol: Obese (ob/ob) mice (average weight 65 g) were bred in a colony, and were kept in an air conditioned room at 22+2° C. with ad libitum feeding of a rat and mouse breeding diet (Special Diet Services, Witham, UK) and tap water. […] Animals were grouped (n=5) to receive either ZAG/PBS (50 μg day^−1), or PBS in their drinking water, the experiment was repeated three times after a power analysis was performed. […] The ZAG was replaced every 48 h. […] The dose of ZAG was chosen to be the same as that previously administered i.v. (1), so that a direct comparison could be made, between the two routes. Body weight, food and water intake, urinary glucose excretion, and body temperature, determined by the use of a rectal thermometer (RS Components, Northants, UK), were measured daily. A glucose tolerance test was performed on day 3. Animals were fasted for 12 h, followed by oral administration of glucose (1 gkg^−1 in a volume of 100 μl by gavage). Blood samples were removed from the tail vein at 15, 30, 60 and 120 min and used for the measurement of glucose. Urinary glucose was measured by collecting 0.5 ml urine and testing glucose concentration using a Boots glucose monitor. After 8 days of treatment the animals were terminated by cervical dislocation, tissues were removed and rapidly frozen in liquid nitrogen, and maintained at −80° C. Future work would be to repeat this work in diet-induced animals as alternative to a model with gene alteration, although previous studies have shown the ob/ob mouse to be a good indicator of potential human treatments. Animal studies were conducted under Home Office Licence according to the UKCCCR Guidelines for the care and use of laboratory animals.
# [4] = system: murine ZAG; assay: Western blotting of murine ZAG in serum and WAT of ob/ob mice; assay type: in vivo, mouse; details: ob/ob mice dosed orally with human ZAG for 8 days, anti-mouse ZAG antibody
# Protocol: Tissues were thawed, washed in PBS and lysed in Phosphosafe™ Extraction reagent for 5 min at room temperature, followed by sonication at 4° C. Cytosolic protein (5-20 ug) formed by centrifugation at 18,000 g for 5 min at 4° C., was resolved on 12% SDS PAGE by electrophoresis at 180V for about 1 h. To determine ZAG in serum 30 μl samples containing 20 μg total protein were electrophoresed as above. Protein was transferred to 0.45 μm nitrocellulose membranes, which had been blocked with 5% (w/v) non-fat dried milk (Marvel) in Tris-buffered saline, pH 7.5, at 4° C. overnight. Membranes were washed for 15 min in 0.1% Tween 20 buffered saline prior to adding the primary antibodies. Both primary and secondary antibodies were used at a dilution of 1:1000. Incubation was for 1 h at room temperature, and development was by ECL. Blots were scanned by a densitometer to quantify differences.
# [5] = system: rats; details: rats treated with ZAG; cited from earlier work
# [6] = 50 μg day^−1 po in drinking water
# β3-AR, sequence (P13945 whole entry): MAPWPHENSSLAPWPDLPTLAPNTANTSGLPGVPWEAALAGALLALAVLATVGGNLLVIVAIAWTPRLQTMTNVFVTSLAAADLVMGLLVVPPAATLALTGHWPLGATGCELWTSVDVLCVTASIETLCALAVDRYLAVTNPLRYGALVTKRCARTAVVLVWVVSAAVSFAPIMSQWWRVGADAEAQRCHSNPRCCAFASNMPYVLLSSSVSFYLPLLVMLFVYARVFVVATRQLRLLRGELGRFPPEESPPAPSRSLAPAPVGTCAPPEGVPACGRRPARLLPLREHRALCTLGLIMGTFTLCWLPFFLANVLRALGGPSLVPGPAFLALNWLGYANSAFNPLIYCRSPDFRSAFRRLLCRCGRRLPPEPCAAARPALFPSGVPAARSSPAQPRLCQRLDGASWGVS
molecule,measurement,setting,value
B1,Bmax,[1],282±1 fmole mg protein^−1
same,Kd,[1],78 ± 45 nM
same,insulin response to the glucose challenge,[2]; after 3 days of oral ZAG,decreased the insulin response
same,peak blood glucose concentration in glucose tolerance test,[2]; after 3 days of oral ZAG,reduced peak blood glucose concentration
same,reduction in the total area under the curve (AUC) during oral glucose tolerance test,"[2]; after 3 days of oral ZAG, glucose 1 gkg^−1 po after 12 h fast",33%
same,sensitivity to insulin,[2]; oral ZAG 50 μg day^−1,increased sensitivity to insulin
same,increase in rectal temperature,[3]; [6],0.5 °C
same,reduction in urinary glucose excretion,[3]; [6],40%
same,loss of body weight / difference in body weight between ZAG and PBS groups,"[3]; 50 μg day^−1 po in drinking water, after 8 days treatment",5 g
same,difference in body weight between the ZAG and PBS groups,"[3]; 50 μg per day in drinking water, after 5 days of treatment",3.5 g
same,time of treatment after which increase in rectal temperature became significant,[3]; oral ZAG 50 μg per day,4 days
same,time of treatment after which reduction in urinary glucose excretion became significant,[3]; oral ZAG 50 μg per day,1 days
same,elevation of murine ZAG in serum,[4],two-fold
same,elevation of murine ZAG in serum,[4]; listed as human ZAG,2 fold
same,rise in body temperature,[5],0.4 °C
